Source: patent US20260116951A1 (DUCENTIS BIOTHERAPEUTICS, published 2026)

How the values were obtained:
Human PBMCs = target: T1, Human PBMCs; assay: Flow cytometry, % binding on human PBMCs gated on live cells, 1 hour at 37 C, anti-human secondary antibody; the target protein on the cells is not named
T1 construct: No receptor was assigned; also called human PBMCs, gated on live cells
Description: PBMC cells were re-suspended with a density of 0.1 million cells per assay point, with 50 μL FACS buffer (1×PBS+2% FBS). Dilutions of huCD200-Fc in 50 μL were added, starting at 10 μg/mL with 3-fold dilutions up to 10 concentrations with FACS buffer, and incubated for 1-hour at 37° C. At the end of each time point, cells were collected and washed (addition of 200 μL FACS buffer and centrifugation at 1400 RPM). 10 μg/mL of anti-human secondary antibody (Abcam Ab98596) was added together with excess Fc block (Innovex Biosciences no. NB309), and incubated for 30 minutes at 4° C. Cells were washed post incubation and stained to check viability (1 μL dye per million cells per mL 1×PBS, ThermoFisher C34557A) for 20 minutes at 4° C. Cells were washed and fixed with Fixation buffer (100 μL per test, BD Sciences 554655) at 4° C. for 20 minutes. Post incubation, cells were washed and the pellet was re-suspended in FACS buffer (100 μL per test) for data acquisition on the flow cytometer.

[1] = target: T2, Recombinant Human CD200R, His-tagged (Creative Biomart CD200R1-320H) (human, UniProt Q8TD46 27-266); assay: SPR (BIAcore T200), CD200-Fc captured on anti-human Fc, CD200R flowed, 25 C, 1:1 fit
T2 construct: Bought; also called human CD200 receptor; not shown: His tag
T2 sequence (looked up): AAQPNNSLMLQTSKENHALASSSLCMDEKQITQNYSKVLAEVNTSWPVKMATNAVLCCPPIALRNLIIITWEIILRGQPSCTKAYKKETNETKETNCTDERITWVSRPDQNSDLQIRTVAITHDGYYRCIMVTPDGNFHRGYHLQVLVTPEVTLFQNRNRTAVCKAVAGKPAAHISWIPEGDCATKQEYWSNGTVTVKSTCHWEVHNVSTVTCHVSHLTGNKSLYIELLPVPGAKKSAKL
Description: (§1) The experiments were performed on a GE Healthcare BIAcore T200. Human, cynomolgus and mouse CD200R proteins were purchased from Creative Biomart (CD200R1-320H, CD200R1-3483C, CD200R1-3280M). All measurements were performed in duplicate.
For human CD200 constructs: anti-human Fc (GE Healthcare) was covalently immobilized on a BIAcore CM5 sensor chip (Cytiva, BR100530) by amine coupling using a Cytiva kit (BR100839) following the manufacturer's instructions, targeting immobilization of 8,000-11,000 RU. CD200-Fc proteins were diluted to 0.5 μg/mL to 4 μg/mL in running Buffer (1×HBS-EP+pH7.4 (Cytiva BR100669), HEPES Buffered Saline pH 7.4 containing 3 mM EDTA and 0.05% v/v Surfactant P20) and flowed for 25 to 100 seconds at 10 μL/min over the immobilized Anti-Human IgG Fc, with a stabilization time of 60 seconds. […]
(§2) For mouse CD200 constructs, muCD200R-Fc (Creative Biomart CD200R1-458M) diluted to 1 μg/mL in running buffer was flowed over the immobilized Anti-Human IgG Fc, with CD200 monomers serially diluted and flowed over captured CD200R. […] Data analysis: experimental sensorgrams were analyzed in BIAevaluation software (GE Healthcare). […] Closeness of fit was determined by algorithms provided by the manufacturer in the BIAevaluation software, and data accepted if the Chi² value was less than 10% of Rₘₐₓ, and the U value was less than or equal to 15.

[2] = target: T3, Human CD200R, full length, on transduced U937 cells (U937-CD200R) (human, UniProt Q8TD46 25-348); assay: cell-based or functional assay
T3 sequence (looked up): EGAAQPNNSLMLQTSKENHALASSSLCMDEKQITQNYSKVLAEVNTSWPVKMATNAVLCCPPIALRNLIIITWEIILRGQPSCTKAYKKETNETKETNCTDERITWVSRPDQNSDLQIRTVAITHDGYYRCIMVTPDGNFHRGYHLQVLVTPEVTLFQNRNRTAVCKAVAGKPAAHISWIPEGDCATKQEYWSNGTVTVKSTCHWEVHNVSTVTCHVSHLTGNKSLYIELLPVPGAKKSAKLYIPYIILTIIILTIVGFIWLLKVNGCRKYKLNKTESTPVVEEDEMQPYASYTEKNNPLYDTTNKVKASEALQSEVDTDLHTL

[3] = target: T4, Recombinant Cyno CD200R, His-tagged (Creative Biomart CD200R1-3483C) (cynomolgus monkey); assay: SPR (BIAcore T200), CD200-Fc captured on anti-human Fc, cyno CD200R flowed, 25 C, 1:1 fit, mean of two runs
T4 construct: Bought; also called cynomolgus CD200R1; cynomolgus CD200R
Description: as §1
(§3) For human CD200 constructs: anti-human Fc (GE Healthcare) was covalently immobilized on a BIAcore CM5 sensor chip (Cytiva, BR100530) by amine coupling using a Cytiva kit (BR100839) following the manufacturer's instructions, targeting immobilization of 8,000-11,000 RU. CD200-Fc proteins were diluted to 0.5 μg/mL to 4 μg/mL in running Buffer (1×HBS-EP+pH7.4 (Cytiva BR100669), HEPES Buffered Saline pH 7.4 containing 3 mM EDTA and 0.05% v/v Surfactant P20) and flowed for 25 to 100 seconds at 10 μL/min over the immobilized Anti-Human IgG Fc, with a stabilization time of 60 seconds. Between 35 and 250 RUs of CD200-Fc were captured, with higher RUs used for cynomolgus CD200R binding experiments. […] Analysis temperature was 25° C. This was followed by regeneration of the surface with 30-90 second pulse of 3M MgCl₂ flowed at 30 L/min flow rate followed by stabilization of the surface with 60 second flow of running buffer.
(§4) For mouse CD200 constructs, muCD200R-Fc (Creative Biomart CD200R1-458M) diluted to 1 μg/mL in running buffer was flowed over the immobilized Anti-Human IgG Fc, with CD200 monomers serially diluted and flowed over captured CD200R. Other details were as above. Data analysis: experimental sensorgrams were analyzed in BIAevaluation software (GE Healthcare). The curves obtained were fitted to 1:1 Langmuir binding model by setting Rmax and RI as local parameters. Rate equations using standard parameters (e.g. ligand concentration, time) were used for iterative curve fitting. Closeness of fit was determined by algorithms provided by the manufacturer in the BIAevaluation software, and data accepted if the Chi² value was less than 10% of Rₘₐₓ, and the U value was less than or equal to 15.

[4] = target: T2, Recombinant Human CD200R, His-tagged …; assay: SPR, CD200R flowed over immobilized CD200-Fc, 25 C, 1:1 fit, mean of 2 experiments with standard deviation
Description: as §3
Curves obtained were fitted to 1:1 Langmuir binding model by setting Rmax and RI as local parameters. Rate equations using standard parameters (e.g. ligand concentration, time) were used for iterative curve fitting. […] Means of 2 experiments carried out on the same day are shown with standard deviation. Residue numbering for CD200 proteins refers to the pre-protein, containing a signal peptide which is cleaved during insertion into the endoplasmic reticulum.

[5] = target: T2, Recombinant Human CD200R, His-tagged …; assay: SPR (BIAcore), DS-118 captured (0.5 ug/mL), HuCD200R1 flowed at 100 nM to 6.25 nM, 25 C, 1:1 Binding model, run 1
Description: as §3, §4

[6] = target: T2, Recombinant Human CD200R, His-tagged …; assay: SPR (BIAcore)
Description: as §3, with “This was followed by regeneration of the surface with 30-90 second pulse of 3M MgCl₂ flowed at 30 L/min flow rate followed by stabilization of the surface with 60 second flow of running buffer.” left out
as §2

B1: DS-118 (mutated human CD200-Fc fusion protein, K130Y, I131Y, IgG4 S228P Fc) (Fc fusion)
chain: QVQVVTQDEREQLYTPASLKCSLQNAQEALIVTWQKKKAVSPENMVTFSENHGVVIQPAYKDKINITQLGLQNSTITFWNITLEDEGCYMCLFNTFGFGYYSGTACLTVYVQPIVSLHYKFSEDHLNITCSATARPAPMVFWKVPRSGIENSTVTLSHPNGTTSVTSILHIKDPKNQVGKEVICQVLHLGTVTDFKQTVNKGPPCPPCPAPEFLGGPSVFLFPPKPKDTLMISRTPEVTCVVVDVSQEDPEVQFNWYVDGVEVHNAKTKPREEQFNSTYRVVSVLTVLHQDWLNGKEYKCKVSNKGLPSSIEKTISKAKGQPREPQVYTLPPSQEEMTKNQVSLTCLVKGFYPSDIAVEWESNGQPENNYKTTPPVLDSDGSFFLYSRLTVDKSRWQEGNVFSCSVMHEALHNHYTQKSLSLSLGK
notes: also called mutated CD200-Fc; mutant CD200-Fc
In the case of B1, the EC50 (Human PBMCs) is reported as 0.29 µg/mL, the t½ [1] is reported as 37.9 min and the “inhibition of LPS stimulated IL-6 release from U937-CD200R cells, IC50” value [2] is reported as 0.01 µg/mL. It also gave a Kd [3] of 206 nM, a koff [3] of 0.038 s⁻¹ and a kon [3] of 186000 M⁻¹ s⁻¹. The Kd [4] was 1.3 nM, the Kd [5] was 1.21 nM and the koff [5] was 0.000278 s⁻¹. The kon [5] was 230000 M⁻¹ s⁻¹ and the “fold greater affinity than wild-type CD200-Fc (DS-155)” value [6] was ~137 fold.
